Laboratory results from publication PMC8857470, “Molecular insights into the maturation of phosphodiesterase 6 by the specialized chaperone complex of HSP90 with AIPL1” (The Journal of Biological Chemistry, 2022).

Target: full-length human HSP90β (residues 1–724), pET15b construct (human) (UniProt P08238)
Assay: cross-linking + other: mass photometry; DSS (0.5 mM) or glutaraldehyde (0.03%) added to HSP90β (15 μM), AIPL1 (25 μM) or their mixture (HSP90_(AMPPNP)/AIPL1), 15 to 30 min at 25 °C, 25 mM Hepes pH 7.5, 200 mM NaCl, 5% glycerol, 1 mM TCEP; products on 3 to 8% Tris-acetate gel and by mass photometry

full-length human HSP90β (residues 1–724), pET15b construct, P08238 1-724 (natural protein; other documents disagree on this pair), sequence (P08238 whole entry, the tested form may be a part): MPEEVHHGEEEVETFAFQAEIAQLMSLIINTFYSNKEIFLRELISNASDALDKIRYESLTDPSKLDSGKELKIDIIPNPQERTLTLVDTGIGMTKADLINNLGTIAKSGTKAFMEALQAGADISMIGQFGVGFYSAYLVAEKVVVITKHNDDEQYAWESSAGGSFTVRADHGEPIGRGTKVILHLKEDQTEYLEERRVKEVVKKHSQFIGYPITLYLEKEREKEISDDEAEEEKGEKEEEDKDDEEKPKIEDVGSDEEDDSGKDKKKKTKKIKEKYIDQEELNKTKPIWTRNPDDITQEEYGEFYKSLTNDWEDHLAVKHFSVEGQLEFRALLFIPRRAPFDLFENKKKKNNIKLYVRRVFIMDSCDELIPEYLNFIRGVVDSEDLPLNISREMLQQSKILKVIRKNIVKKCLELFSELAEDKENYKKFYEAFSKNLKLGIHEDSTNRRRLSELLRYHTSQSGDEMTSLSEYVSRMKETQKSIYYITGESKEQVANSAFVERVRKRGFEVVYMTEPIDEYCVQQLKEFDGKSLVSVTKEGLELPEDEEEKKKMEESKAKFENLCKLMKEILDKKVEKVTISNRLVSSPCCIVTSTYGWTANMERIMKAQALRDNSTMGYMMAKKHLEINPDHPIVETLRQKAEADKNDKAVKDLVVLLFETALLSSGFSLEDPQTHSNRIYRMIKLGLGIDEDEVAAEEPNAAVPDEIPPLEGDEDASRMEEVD

stoichiometry N: 2
Substance: full-length human HSP90β (residues 1–724), pET15b construct, P08238 1-724 (natural protein; other documents disagree on this pair)
